# Measured values published in patent US20110091994A1, “Methods for Screening Compounds for Treating and/or Preventing an Hepatitis C Virus Infection” (priority 2008, published 2011).
# Read-outs that look alike come from different tables or passages of the source.
# How the values were obtained:
# [1] = target: T1, HCV ORFs (Gal4-DB fusions) (Hepatitis C virus genotype 1b, UniProt Q9WMX2); type: binding, HCV genotype 1b, isolate con1; conditions: human protein as prey
# T1 construct: expressed in transfected cells; host or cells: Saccharomyces cerevisiae MAV203 (IMAP1) / AH109 (IMAP2)
# [2] = system: HCV ORFs (Gal4-DB fusions); type: binding, HCV genotype 1b, isolate con1; conditions: human protein listed by gene symbol; the value names the HCV protein it interacts with
# 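Note: yeast two-hybrid screens using HCV genotype 1b proteins fused to Gal4-DB as baits against prey cDNA libraries from human spleen and foetal brain, IMAP1 via transformation and IMAP2 via mating.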
Molecule,IMAP Y2H IMAP2 (number of IST) ([1]; HCV protein NS3 as bait),Interaction with viral protein [2],IMAP Y2H IMAP2 (number of IST) ([1]; HCV protein NS5A as bait),IMAP Y2H IMAP2 (number of IST) ([1]; HCV protein CORE as bait)
"FBF1 (protein, UniProt Q8TES7 1-1133, looked up) Fas-binding factor 1: MAPKTKKGCKVTLPEKPVKLASHTRDTTGVSQMFPSSKARTKSLLGDDVFSTMAGLEEADAEVSGISEADPQALLQAMKDLDGMDADILGLKKSNSAPSKKAAKDPGKGELPNHPKPAGGAIPTKKSLPSPSSSGHQNRRFSSEDLEDPLRGLLSYDEGGITKQPPVTQSKTASDKSPSTVRDQGPSIPLTPGDTPIRKKEELLFDDGDDIMATLGFGDSPKAEKRQIGDQEGPRPARSTLDELLGRGMATKLLARPGTGEHREFKLDKKYQRPQDSEDMWGDEDFTFGAYQPTVVSSEGRQSRRQSVSRFFADSGADPKGEPGSKQSPPMASSPIQPRKGGADWLGLKDEDLDLFPASPTREAHRESSVPVTPSVPPPASQHSTPAGLPPSRAKPPTEGAGSPAKASQASKLRASKEEKEDWLSHALSRKKSQGLAREQHAGTSEGLHLAGTAGHPPSGSQPLTSTQGLEHAAAGGSSGTTARERPCVRPGVSGSPVTQNHAASALPTGSPKRGTAPGDLSATEPATCFPSTQKPTEPSVPVQPLLPESLARSLLPSTEYQKQLLAAQVQLQCSPAELQAELLHSQARLAELEAQVRKLELERAQHELLLGSLQQQHQADLELIESAHRSRIKVLETSYQQREERLRRENEELSARYLSQCQEAEQARAELTAQHQRRLAAIAQEKDQEMERLRELQRASILDMRRDHEEQLQRLKLLKDREVDAATSATSHTRSLNSIIHQMEKFSSSLHELSSRVEASHLTTSQERELGIRQRDEQLRALQERLGQQQRDMEEERSRQQEVIGKMEARLNEQSRLLEQERWRVTAEQSKAESMQRALEEQRKVTAQQMAMERAELERAKSALLEEQKSVMLKCGEERRRLAAEWAEFSAQQKLSKERAEREAERALQVDTQREGTLISLAKQAELKIRASELRAEEKQLAAERAALEQERQELRLEKERINATALRVKLRAEEVESMSKVASEKYEEGERALREAQQVQAEQQARLQAVQQQQERLRKQEQHMHQEHLSLAQQRLQLDRARQDLPSSLVGLFPRAQGPAASSQSALMPPAPTTRWCSQPPTGLDPSPLHLHARLALLRHMAEQDRDFLENEQFFLETLKKGSYNLTSHSA",3,NS3,,
"NUCB1 (protein, UniProt Q02818 27-461, looked up) Nucleobindin-1: VPLERGAPNKEETPATESPDTGLYYHRYLQEVIDVLETDGHFREKLQAANAEDIKSGKLSRELDFVSHHVRTKLDELKRQEVSRLRMLLKAKMDAEQDPNVQVDHLNLLKQFEHLDPQNQHTFEARDLELLIQTATRDLAQYDAAHHEEFKRYEMLKEHERRRYLESLGEEQRKEAERKLEEQQRRHREHPKVNVPGSQAQLKEVWEELDGLDPNRFNPKTFFILHDINSDGVLDEQELEALFTKELEKVYDPKNEEDDMREMEEERLRMREHVMKNVDTNQDRLVTLEEFLASTQRKEFGDTGEGWETVEMHPAYTEEELRRFEEELAAREAELNAKAQRLSQETEALGRSQGRLEAQKRELQQAVLHMEQRKQQQQQQQGHKAPAAHPEGQLKFHPDTDDVPVPAPAGDQKEVDTSEKKLLERLPEVEVPQHL",,NS3 and NS5A,2,
"PRRC1 (protein, UniProt Q96M27 1-445, looked up) Protein PRRC1: MMEESGIETTPPGTPPPNPAGLAATAMSSTPVPLAATSSFSSPNVSSMESFPPLAYSTPQPPLPPVRPSAPLPFVPPPAVPSVPPLVTSMPPPVSPSTAAAFGNPPVSHFPPSTSAPNTLLPAPPSGPPISGFSVGSTYDITRGHAGRAPQTPLMPSFSAPSGTGLLPTPITQQASLTSLAQGTGTTSAITFPEEQEDPRITRGQDEASAGGIWGFIKGVAGNPMVKSVLDKTKHSVESMITTLDPGMAPYIKSGGELDIVVTSNKEVKVAAVRDAFQEVFGLAVVVGEAGQSNIAPQPVGYAAGLKGAQERIDSLRRTGVIHEKQTAVSVENFIAELLPDKWFDIGCLVVEDPVHGIHLETFTQATPVPLEFVQQAQSLTPQDYNLRWSGLLVTVGEVLEKSLLNVSRTDWHMAFTGMSRRQMIYSAARAIAGMYKQRLPPRTV",1,NS3,,
"PABPN1 (protein, UniProt Q86U42 2-306, looked up) Polyadenylate-binding protein …: AAAAAAAAAAGAAGGRGSGPGRRRHLVPGAGGEAGEGAPGGAGDYGNGLESEELEPEELLLEPEPEPEPEEEPPRPRAPPGAPGPGPGSGAPGSQEEEEEPGLVEGDPGDGAIEDPELEAIKARVREMEEEAEKLKELQNEVEKQMNMSPPPGNAGPVIMSIEEKMEADARSIYVGNVDYGATAEELEAHFHGCGSVNRVTILCDKFSGHPKGFAYIEFSDKESVRTSLALDESLFRGRQIKVIPKRTNRPGISTTDRGFPRARYRARTTNYNSSRSRFYSGFNSRPRGRVYRGRARATSWYSPY",,CORE,,1
"SYNPO2 (protein, UniProt Q9UMS6 1-1093, looked up) Synaptopodin-2: MGTGDFICISMTGGAPWGFRLQGGKEQKQPLQVAKIRNQSKASGSGLCEGDEVVSINGNPCADLTYPEVIKLMESITDSLQMLIKRPSSGISEALISENENKNLEHLTHGGYVESTTLQIRPATKTQCTEFFLAPVKTEVPLAENQRSGPDCAGSLKEETGPSYQRAPQMPDSQRGRVAEELILREKVEAVQPGPVVELQLSLSQERHKGASGPLVALPGAEKSKSPDPDPNLSHDRIVHINSIPTNEKADPFLRSSKIIQISSGRELRVIQESEAGDAGLPRVEVILDCSDRQKTEGCRLQAGKECVDSPVEGGQSEAPPSLVSFAVSSEGTEQGEDPRSEKDHSRPHKHRARHARLRRSESLSEKQVKEAKSKCKSIALLLTDAPNPNSKGVLMFKKRRRRARKYTLVSYGTGELEREADEEEEGDKEDTCEVAFLGASESEVDEELLSDVDDNTQVVNFDWDSGLVDIEKKLNRGDKMEMLPDTTGKGALMFAKRRERMDQITAQKEEDKVGGTPSREQDAAQTDGLRTTTSYQRKEEESVRTQSSVSKSYIEVSHGLGHVPQQNGFSGTSETANIQRMVPMNRTAKPFPGSVNQPATPFSPTRNMTSPIADFPAPPPYSAVTPPPDAFSRGVSSPIAGPAQPPPWPQPAPWSQPAFYDSSERIASRDERISVPAKRTGILQEAKRRSTTKPMFTFKEPKVSPNPELLSLLQNSEGKRGTGAGGDSGPEEDYLSLGAEACNFMQSSSAKQKTPPPVAPKPAVKSSSSQPVTPVSPVWSPGVAPTQPPAFPTSNPSKGTVVSSIKIAQPSYPPARPASTLNVAGPFKGPQAAVASQNYTPKPTVSTPTVNAVQPGAVGPSNELPGMSGRGAQLFAKRQSRMEKYVVDSDTVQAHAARAQSPTPSLPASWKYSSNVRAPPPVAYNPIHSPSYPLAALKSQPSAAQPSKMGKKKGKKPLNALDVMKHQPYQLNASLFTFQPPDAKDGLPQKSSVKVNSALAMKQALPPRPVNAASPTNVQASSVYSVPAYTSPPSFFAEASSPVSASPVPVGIPTSPKQESASSSYFVAPRPKFSAKKSGVTIQVWKPSVVEE",1,NS3,,
"TBXAS1 (protein, UniProt P24557 1-533, looked up) Thromboxane-A synthase: MEALGFLKLEVNGPMVTVALSVALLALLKWYSTSAFSRLEKLGLRHPKPSPFIGNLTFFRQGFWESQMELRKLYGPLCGYYLGRRMFIVISEPDMIKQVLVENFSNFTNRMASGLEFKSVADSVLFLRDKRWEEVRGALMSAFSPEKLNEMVPLISQACDLLLAHLKRYAESGDAFDIQRCYCNYTTDVVASVAFGTPVDSWQAPEDPFVKHCKRFFEFCIPRPILVLLLSFPSIMVPLARILPNKNRDELNGFFNKLIRNVIALRDQQAAEERRRDFLQMVLDARHSASPMGVQDFDIVRDVFSSTGCKPNPSRQHQPSPMARPLTVDEIVGQAFIFLIAGYEIITNTLSFATYLLATNPDCQEKLLREVDVFKEKHMAPEFCSLEEGLPYLDMVIAETLRMYPPAFRFTREAAQDCEVLGQRIPAGAVLEMAVGALHHDPEHWPSPETFNPERFTAEARQQHRPFTYLPFGAGPRSCLGVRLGLLEVKLTLLHVLHKFRFQACPETQVPLQLESKSALGPKNGVYIKIVSR",1,NS3,,
"TMEM63B (protein, UniProt Q5T3F8 1-832, looked up) Mechanosensitive cation …: MLPFLLATLGTTALNNSNPKDYCYSARIRSTVLQGLPFGGVPTVLALDFMCFLALLFLFSILRKVAWDYGRLALVTDADRLRRQERDRVEQEYVASAMHGDSHDRYERLTSVSSSVDFDQRDNGFCSWLTAIFRIKDDEIRDKCGGDAVHYLSFQRHIIGLLVVVGVLSVGIVLPVNFSGDLLENNAYSFGRTTIANLKSGNNLLWLHTSFAFLYLLLTVYSMRRHTSKMRYKEDDLVKRTLFINGISKYAESEKIKKHFEEAYPNCTVLEARPCYNVARLMFLDAERKKAERGKLYFTNLQSKENVPTMINPKPCGHLCCCVVRGCEQVEAIEYYTKLEQKLKEDYKREKEKVNEKPLGMAFVTFHNETITAIILKDFNVCKCQGCTCRGEPRPSSCSESLHISNWTVSYAPDPQNIYWEHLSIRGFIWWLRCLVINVVLFILLFFLTTPAIIITTMDKFNVTKPVEYLNNPIITQFFPTLLLWCFSALLPTIVYYSAFFEAHWTRSGENRTTMHKCYTFLIFMVLLLPSLGLSSLDLFFRWLFDKKFLAEAAIRFECVFLPDNGAFFVNYVIASAFIGNAMDLLRIPGLLMYMIRLCLARSAAERRNVKRHQAYEFQFGAAYAWMMCVFTVVMTYSITCPIIVPFGLMYMLLKHLVDRYNLYYAYLPAKLDKKIHSGAVNQVVAAPILCLFWLLFFSTMRTGFLAPTSMFTFVVLVITIVICLCHVCFGHFKYLSAHNYKIEHTETDTVDPRSNGRPPTAAAVPKSAKYIAQVLQDSEVDGDGDGAPGSSGDEPPSSSSQDEELLMPPDALTDTDFQSCEDSLIENEIHQ",1,NS3,,
"UBE1C (protein, UniProt Q8TBC4 2-463, looked up) NEDD8-activating enzyme E1 …: ADGEEPEKKRRRIEELLAEKMAVDGGCGDTGDWEGRWNHVKKFLERSGPFTHPDFEPSTESLQFLLDTCKVLVIGAGGLGCELLKNLALSGFRQIHVIDMDTIDVSNLNRQFLFRPKDIGRPKAEVAAEFLNDRVPNCNVVPHFNKIQDFNDTFYRQFHIIVCGLDSIIARRWINGMLISLLNYEDGVLDPSSIVPLIDGGTEGFKGNARVILPGMTACIECTLELYPPQVNFPMCTIASMPRLPEHCIEYVRMLQWPKEQPFGEGVPLDGDDPEHIQWIFQKSLERASQYNIRGVTYRLTQGVVKRIIPAVASTNAVIAAVCATEVFKIATSAYIPLNNYLVFNDVDGLYTYTFEAERKENCPACSQLPQNIQFSPSAKLQEVLDYLTNSASLQMKSPAITATLEGKNRTLYLQSVTSIEERTRPNLSKTLKELGLVDGQELAVADVTTPQTVLFKLHFTS",1,NS3,,
